As a reminder, the stoichiometry N is a count of units in the complex or per binding partner.

To fix the notation:
B3: ROCK-I^1−406 (kinase and N-terminal dimerisation domains), His tag cleaved (domain or fragment, UniProt Q13464 1-406, looked up)
chain: MSTGDSFETRFEKMDNLLRDPKSEVNSDCLLDGLDALVYDLDFPALRKNKNIDNFLSRYKDTINKIRDLRMKAEDYEVVKVIGRGAFGEVQLVRHKSTRKVYAMKLLSKFEMIKRSDSAFFWEERDIMAFANSPWVVQLFYAFQDDRYLYMVMEYMPGGDLVNLMSNYDVPEKWARFYTAEVVLALDAIHSMGFIHRDVKPDNMLLDKSGHLKLADFGTCMKMNKEGMVRCDTAVGTPDYISPEVLKSQGGDGYYGRECDWWSVGVFLYEMLVGDTPFYADSLVGTYSKIMNHKNSLTFPDDNDISKEAKNLICAFLTDREVRLGRNGVEEIKRHLFFKNDQWAWETLRDTVAPVVPDLSSDIDTSNFDDLEEDKGEEETFPIPKAFVGNQLPFVGFTYYSNRRYL

Series [1] has as its target His6-ROCK-I^1−406 (purified without cleavage of the His6 tag) (UniProt Q13464 1-406). As to the kind of experiment: pull-down.
For series [2], the target named is B3. As to the kind of experiment: crystal structure.
The series “crystal structure” concerns the molecule itself. As to the kind of experiment: crystal structure.

B1: GST–RhoE^WT (natural protein, UniProt P61587 1-244, looked up)
chain: MKERRASQKLSSKSIMDPNQNVKCKIVVVGDSQCGKTALLHVFAKDCFPENYVPTVFENYTASFEIDTQRIELSLWDTSGSPYYDNVRPLSYPDSDAVLICFDISRPETLDSVLKKWKGEIQEFCPNTKMLLVGCKSDLRTDVSTLVELSNHRQTPVSYDQGANMAKQIGAATYIECSALQSENSVRDIFHVATLACVNKTNKNVKRNKSQRATKRISHMPSRPELSAVATDLRKDKAKSCTVM
Take B1: the binding result in series [1] is listed as “binds”.

B2: RhoE^1−200 (RhoE-GTP/Mg2+, residues 1–200) (domain or fragment, UniProt P61587 1-200, looked up)
chain: MKERRASQKLSSKSIMDPNQNVKCKIVVVGDSQCGKTALLHVFAKDCFPENYVPTVFENYTASFEIDTQRIELSLWDTSGSPYYDNVRPLSYPDSDAVLICFDISRPETLDSVLKKWKGEIQEFCPNTKMLLVGCKSDLRTDVSTLVELSNHRQTPVSYDQGANMAKQIGAATYIECSALQSENSVRDIFHVATLACVNK
B2: in series [2], the binding result was “binds”.

In the case of B3, the “stoichiometry N” value in “crystal structure” was 2.

These data come from publication PMC2579254 (The EMBO Journal, 2008).
